Kd, dH and stoichiometry N data for five substances are collected here from PMC3412936.

A value given as a limit tells only on which side of the number the result lay.

Common to all, as to experiment: ITC
The target of assay [1] is WW1 domain (residues 16-50) of human WWOX (human) (UniProt Q9NZC7).
Assay [2] addresses WW2_E66R mutant of the WW2 domain of WWOX (human) (UniProt Q9NZC7).
The target in assay [3] is WW1_R25A mutant of the WW1 domain of WWOX (human) (UniProt Q9NZC7).
Assay [4] concerns the target WW2 domain (residues 57-91) of human WWOX (human) (UniProt Q9NZC7).
Assay [5] addresses WW1_W44Y mutant of the WW1 domain of WWOX (human) (UniProt Q9NZC7).
Assay [6] addresses engineered WW2_RW domain of WWOX (E66R/Y85W double-mutant of WW2 domain) (human) (UniProt Q9NZC7).
Assay [7] addresses WW2_Y85W mutant of the WW2 domain of WWOX (human) (UniProt Q9NZC7).
The target in assay [8] is engineered WW1-WW2rw tandem domains of WWOX (human) (UniProt Q9NZC7).
engineered WW1-WW2rw tandem domains of WWOX (human), sequence (Q9NZC7 16-91 E66R/Y85W): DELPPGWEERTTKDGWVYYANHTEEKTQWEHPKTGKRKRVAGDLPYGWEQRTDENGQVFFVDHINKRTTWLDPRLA
The target of assay [9] is WW1_R25E mutant of the WW1 domain of WWOX (human) (UniProt Q9NZC7).
WW1_R25E mutant of the WW1 domain of WWOX (human), sequence (Q9NZC7 16-50 R25E): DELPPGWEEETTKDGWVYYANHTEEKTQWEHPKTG
Assay [10] concerns the target WW1-WW2 tandem domains (residues 16-91) of human WWOX (human) (UniProt Q9NZC7).

WW1 domain (residues 16-50) of human WWOX (human), sequence (Q9NZC7 16-50): as the sequence (Q9NZC7 16-50 R25E) above, with E10R counted along it
WW1-WW2 tandem domains (residues 16-91) of human WWOX (human), sequence (Q9NZC7 16-91): as the sequence (Q9NZC7 16-91 E66R/Y85W) above, with R51E, W70Y counted along it
engineered WW2_RW domain of WWOX (E66R/Y85W double-mutant of WW2 domain) (human), sequence (Q9NZC7 57-91 E66R/Y85W): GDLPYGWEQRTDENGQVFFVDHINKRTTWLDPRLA
WW1_R25A mutant of the WW1 domain of WWOX (human), sequence (Q9NZC7 16-50 R25A): as the sequence (Q9NZC7 16-50 R25E) above, with E10A counted along it
WW2_Y85W mutant of the WW2 domain of WWOX (human), sequence (Q9NZC7 57-91 Y85W): as the sequence (Q9NZC7 57-91 E66R/Y85W) above, with R10E counted along it
WW2_E66R mutant of the WW2 domain of WWOX (human), sequence (Q9NZC7 57-91 E66R): as the sequence (Q9NZC7 57-91 E66R/Y85W) above, with W29Y counted along it
WW2 domain (residues 57-91) of human WWOX (human), sequence (Q9NZC7 57-91): as the sequence (Q9NZC7 57-91 E66R/Y85W) above, with R10E, W29Y counted along it
WW1_W44Y mutant of the WW1 domain of WWOX (human), sequence (Q9NZC7 16-50 W44Y): as the sequence (Q9NZC7 16-50 R25E) above, with E10R, W29Y counted along it

By Kd is commonly meant the free concentration of one partner at which half of the binding sites on the other are occupied at equilibrium, for simple one-to-one binding. On to “PY3_P-2A alanine mutant of the WBP2_PY3 peptide”, for which, in [1], the dissociation constant (Kd) stood at 250 µM and the dH is -18 kcal/mol.
In assay [1], “PY3_Q-3A alanine mutant of the WBP2_PY3 peptide” displayed a Kd of 149 µM and a dH of -12.4 kcal/mol.
In assay [1], “PY3_Y+3A alanine mutant of the WBP2_PY3 peptide” returned a Kd of 554 µM and a dH of -4.95 kcal/mol.
In assay [1], “PY3_Y+4A alanine mutant of the WBP2_PY3 peptide” showed a Kd of 229 µM and a dH of -8.35 kcal/mol.
What is called stoichiometry N is a count of units in the complex or per binding partner. Take “WBP2_PY3 peptide (12-mer spanning the PY3 PPXY motif of human WBP2)”: the Kd in assay [2] was more than 1000 µM; in [3], more than 1000 µM; in assay [1], 122 µM; in assay [4], more than 1000 µM; in assay [5] it was more than 1000 µM; in [6], 91 µM. Besides, the Kd in [7] is more than 1000 µM; in [8] it was 59 µM; in assay [9] it was more than 1000 µM; in assay [10] it was 49 µM. Moreover, the dH in [1] was -12.6 kcal/mol; in assay [6], -5.2 kcal/mol; in [8], -8.02 kcal/mol; in assay [10], -8.46 kcal/mol. The substance also displayed a stoichiometry N in assay [10] of 1.05.
